{"source": "patent US20140221281A1", "about": "(Sanofi, published 2014)", "binders": {"B1": {"name": "SEQ ID NO: 10 (peptide)", "peptide": "Y[Aib]EGTFTSDLSIQK([γGlu-Palmitoyl])EERAA[αMeOrn]EFIEWLKNTGPSSGAPPPS-NH2", "modifications": "N-terminus assumed", "SMILES": "CCCCCCCCCCCCCCCC(=O)N[C@@H](CCC(=O)NCCCC[C@H](NC(=O)[C@H](CCC(N)=O)NC(=O)[C@@H](NC(=O)[C@H](CO)NC(=O)[C@H](CC(C)C)NC(=O)[C@H](CC(=O)O)NC(=O)[C@H](CO)NC(=O)[C@@H](NC(=O)[C@H](Cc1ccccc1)NC(=O)[C@@H](NC(=O)CNC(=O)[C@H](CCC(=O)O)NC(=O)C(C)(C)NC(=O)[C@@H](N)Cc1ccc(O)cc1)[C@@H](C)O)[C@@H](C)O)[C@@H](C)CC)C(=O)N[C@@H](CCC(=O)O)C(=O)N[C@@H](CCC(=O)O)C(=O)N[C@@H](CCCNC(=N)N)C(=O)N[C@@H](C)C(=O)N[C@@H](C)C(=O)N[C@@](C)(CCCN)C(=O)N[C@@H](CCC(=O)O)C(=O)N[C@@H](Cc1ccccc1)C(=O)N[C@H](C(=O)N[C@@H](CCC(=O)O)C(=O)N[C@@H](Cc1c[nH]c2ccccc12)C(=O)N[C@@H](CC(C)C)C(=O)N[C@@H](CCCCN)C(=O)N[C@@H](CC(N)=O)C(=O)N[C@H](C(=O)NCC(=O)N1CCC[C@H]1C(=O)N[C@@H](CO)C(=O)N[C@@H](CO)C(=O)NCC(=O)N[C@@H](C)C(=O)N1CCC[C@H]1C(=O)N1CCC[C@H]1C(=O)N1CCC[C@H]1C(=O)N[C@@H](CO)C(N)=O)[C@@H](C)O)[C@@H](C)CC)C(=O)O"}, "B2": {"name": "SEQ ID NO: 9 (peptide)", "peptide": "Y[Aib]EGTFTSDLSIQK([γGlu-Palmitoyl])EERAA[d(αMeK)]EFIEWLKNTGPSSGAPPPS-NH2", "modifications": "N-terminus assumed", "SMILES": "CCCCCCCCCCCCCCCC(=O)N[C@@H](CCC(=O)NCCCC[C@H](NC(=O)[C@H](CCC(N)=O)NC(=O)[C@@H](NC(=O)[C@H](CO)NC(=O)[C@H](CC(C)C)NC(=O)[C@H](CC(=O)O)NC(=O)[C@H](CO)NC(=O)[C@@H](NC(=O)[C@H](Cc1ccccc1)NC(=O)[C@@H](NC(=O)CNC(=O)[C@H](CCC(=O)O)NC(=O)C(C)(C)NC(=O)[C@@H](N)Cc1ccc(O)cc1)[C@@H](C)O)[C@@H](C)O)[C@@H](C)CC)C(=O)N[C@@H](CCC(=O)O)C(=O)N[C@@H](CCC(=O)O)C(=O)N[C@@H](CCCNC(=N)N)C(=O)N[C@@H](C)C(=O)N[C@@H](C)C(=O)N[C@](C)(CCCCN)C(=O)N[C@@H](CCC(=O)O)C(=O)N[C@@H](Cc1ccccc1)C(=O)N[C@H](C(=O)N[C@@H](CCC(=O)O)C(=O)N[C@@H](Cc1c[nH]c2ccccc12)C(=O)N[C@@H](CC(C)C)C(=O)N[C@@H](CCCCN)C(=O)N[C@@H](CC(N)=O)C(=O)N[C@H](C(=O)NCC(=O)N1CCC[C@H]1C(=O)N[C@@H](CO)C(=O)N[C@@H](CO)C(=O)NCC(=O)N[C@@H](C)C(=O)N1CCC[C@H]1C(=O)N1CCC[C@H]1C(=O)N1CCC[C@H]1C(=O)N[C@@H](CO)C(N)=O)[C@@H](C)O)[C@@H](C)CC)C(=O)O"}}, "experiment_in_all_cases": "cell-based or functional assay", "key": {"human GIP receptor": {"biological_target": "T1, human GIP receptor (human, UniProt P48546 22-466)", "T1 sequence (looked up)": "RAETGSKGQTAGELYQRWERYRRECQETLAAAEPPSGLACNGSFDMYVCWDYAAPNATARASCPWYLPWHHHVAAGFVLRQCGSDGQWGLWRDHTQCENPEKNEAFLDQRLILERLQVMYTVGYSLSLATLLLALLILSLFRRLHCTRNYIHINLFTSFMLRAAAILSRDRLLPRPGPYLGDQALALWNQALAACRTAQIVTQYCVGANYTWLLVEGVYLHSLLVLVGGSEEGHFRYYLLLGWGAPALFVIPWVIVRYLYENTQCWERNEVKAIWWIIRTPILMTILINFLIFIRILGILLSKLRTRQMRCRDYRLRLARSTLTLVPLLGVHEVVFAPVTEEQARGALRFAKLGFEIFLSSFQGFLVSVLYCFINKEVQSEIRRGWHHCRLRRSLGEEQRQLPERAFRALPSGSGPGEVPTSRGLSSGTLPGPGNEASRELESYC"}, "human GLP-1 receptor": {"biological_target": "human GLP-1 receptor (human, UniProt P43220 24-463)"}, "human glucagon receptor": {"biological_target": "human glucagon receptor (human, UniProt P47871 26-477)", "sequence (P47871 26-477)": "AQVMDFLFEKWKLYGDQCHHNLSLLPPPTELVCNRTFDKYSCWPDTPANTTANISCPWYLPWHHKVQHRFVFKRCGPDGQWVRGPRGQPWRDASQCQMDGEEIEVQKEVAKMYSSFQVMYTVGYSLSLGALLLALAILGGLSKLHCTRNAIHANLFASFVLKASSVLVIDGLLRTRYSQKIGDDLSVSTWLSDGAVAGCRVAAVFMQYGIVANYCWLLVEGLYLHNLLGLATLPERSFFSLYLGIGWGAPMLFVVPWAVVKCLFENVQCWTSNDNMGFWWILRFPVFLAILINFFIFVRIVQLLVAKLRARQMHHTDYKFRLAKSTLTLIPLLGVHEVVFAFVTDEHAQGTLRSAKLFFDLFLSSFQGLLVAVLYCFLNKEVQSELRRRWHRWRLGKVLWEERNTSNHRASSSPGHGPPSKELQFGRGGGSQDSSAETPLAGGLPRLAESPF"}}, "note": "*1 amine or outer side, *2 acyl side, *3 side chain or, on linkers, in order; H or OH if unused. Where no end group is shown, it is not given here. Side-chain parts run from the residue outwards. [ ]: non-standard residue; d: D form. The star is where a group is joined. γGlu = O=C(O)[C@H](CCC(=O)[*:2])N[*:1]; Palmitoyl = CCCCCCCCCCCCCCCC(=O)*; d(αMeK) = C[C@@](N)(CCCCN)C(=O)O; αMeOrn = C[C@](N)(CCCN)C(=O)O; Aib = CC(C)(N)C(=O)O"}
{"binder": "B1", "values": [{"measurement": "EC50 hGIP R [pM] (cAMP formation)", "setting": "human GIP receptor", "value": 7.1, "unit": "pM"}, {"measurement": "EC50 hGLP-1 R [pM] (cAMP formation)", "setting": "human GLP-1 receptor", "value": 4.9, "unit": "pM"}, {"measurement": "EC50 hGLUC R [pM] (cAMP formation)", "setting": "human glucagon receptor", "value": 10400, "unit": "pM"}]}
{"binder": "B2", "values": [{"measurement": "EC50 hGIP R [pM] (cAMP formation)", "setting": "human GIP receptor", "value": 93.2, "unit": "pM"}, {"measurement": "EC50 hGLP-1 R [pM] (cAMP formation)", "setting": "human GLP-1 receptor", "value": 13.5, "unit": "pM"}, {"measurement": "EC50 hGLUC R [pM] (cAMP formation)", "setting": "human glucagon receptor", "value": "> 1e+06", "unit": "pM"}]}
